Results taken from paper PMC11112410 (Frontiers in Immunology, 2024).

Key:
[1] = target: T1, recombinant Aln g 1.0101 (alder) (alder); experiment: ELISA; IgE inhibition: recombinant allergens (1 µg/ml) coated, pre-incubated with Nb32 (10 µg/ml) or Nb32ILZ (11.5 µg/ml) overnight at 4°C, then patients' sera 1:10; bound IgE detected with AKP-labelled anti-human-IgE antibody; conditions: both partners purified
T1 construct: alder pollen allergen Aln g 1, isoallergen Aln g 1.0101; source: bought: Biomay AG (recombinant)
T1 chain: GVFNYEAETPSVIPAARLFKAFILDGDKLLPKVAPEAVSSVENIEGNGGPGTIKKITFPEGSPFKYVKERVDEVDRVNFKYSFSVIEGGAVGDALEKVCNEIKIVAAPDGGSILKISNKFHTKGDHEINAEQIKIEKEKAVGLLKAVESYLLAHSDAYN

[2] = target: T2, recombinant Cor a 1.0103 (hazel) (Corylus avellana, isoallergen Cor a …, UniProt Q08407, strain); experiment: as above; conditions: both partners purified
T2 construct: source: bought: Biomay AG (recombinant)

[3] = target: T3, recombinant Bet v 1.0101 (birch) (birch); experiment: SPR; Biacore T200, CM5 chip, 25°C; allergens amine-coupled; nanobodies injected in HBS-EP+ (Nb32ILZ 0.172-44 nM, Nb32 0.313-40 nM), multicycle kinetics, 30 min dissociation; printed kd from the 1:1 (Langmuir) binding model for both nanobodies; conditions: both partners purified
T3 construct: major birch pollen allergen Bet v 1, isoallergen Bet v 1.0101; also called major birch pollen allergen; source: bought: Biomay AG (recombinant)
T3 chain: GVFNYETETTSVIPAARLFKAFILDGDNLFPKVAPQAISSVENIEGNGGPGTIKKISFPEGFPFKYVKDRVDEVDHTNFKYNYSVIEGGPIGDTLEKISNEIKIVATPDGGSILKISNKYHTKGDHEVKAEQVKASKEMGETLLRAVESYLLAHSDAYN

[4] = target: T1, recombinant Aln g 1.0101 (alder); experiment: as above; conditions: both partners purified
[5] = target: T2, recombinant Cor a 1.0103 (hazel); experiment: as above; conditions: both partners purified
[6] = target: T4, recombinant Phl p 5.0101 (timothy grass) (timothy grass); experiment: ELISA; recombinant allergens or unrelated antigens (2 µg/ml in bicarbonate buffer) coated on the plate; nanobodies 2 µg/ml (Figure 2A) or 1 µg/ml (Figures 2B-C) in 0.1% BSA in PBST, overnight at 4°C; detected with HRP-labelled anti-HA-tag antibody; conditions: both partners purified
T4 construct: timothy grass pollen allergen Phl p 5, isoallergen Phl p 5.0101; also called major grass pollen allergen; source: bought: Biomay AG (recombinant)
T4 chain: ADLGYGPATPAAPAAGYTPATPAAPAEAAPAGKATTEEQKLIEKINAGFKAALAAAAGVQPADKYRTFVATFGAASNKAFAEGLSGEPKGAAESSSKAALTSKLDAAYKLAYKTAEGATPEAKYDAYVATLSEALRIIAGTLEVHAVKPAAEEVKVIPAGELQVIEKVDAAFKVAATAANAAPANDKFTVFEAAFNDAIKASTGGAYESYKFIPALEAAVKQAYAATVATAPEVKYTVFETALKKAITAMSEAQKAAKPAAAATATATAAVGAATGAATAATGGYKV

[7] = target: T5, recombinant Car b 1.0109 (hornbeam) (Carpinus betulus, isoallergen Car b …, UniProt B6RQR6, strain); experiment: as above; conditions: both partners purified
T5 construct: hornbeam pollen allergen Car b 1, isoallergen Car b 1.0109; source: recombinant; provided by Prof; Barbara Bohle (IPA, MUV)

[8] = target: T6, natural Cor a 1 in hazel pollen extract (hazel (endogenous in hazel pollen)); experiment: far-Western, overlay or dot blot; pollen extracts separated by reducing SDS-PAGE, blotted on nitrocellulose; strips incubated with Nb32 (1 µg/ml) or Nb32ILZ (1.15 µg/ml) in Buffer A at 4°C overnight; detected with HRP-labelled anti-HA-tag antibody; conditions: one partner purified
T6 construct: natural Cor a 1 of hazel pollen extract; Unpurified extract; band at around 17 kDa on blots; source: endogenous, hazel pollen (Allergon) extract
T6 chain: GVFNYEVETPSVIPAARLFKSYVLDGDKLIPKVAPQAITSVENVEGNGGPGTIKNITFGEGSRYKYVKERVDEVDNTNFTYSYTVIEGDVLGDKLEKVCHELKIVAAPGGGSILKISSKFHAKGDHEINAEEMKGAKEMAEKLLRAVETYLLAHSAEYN

B1: Bet v 1-specific nanobody monomer Nb32 (VHH)
VHH: QVQLVESGGGSVQSGGSLRLSCAASGYTYSSYCMAWFRQAPGKKREGVAAIDTDGSTDYADSVKGRFAISQDNAKNTLYLQMNSLKPEDTAMYYCAAYGGSCRRGTGSGYWGQGTQVTVSS
notes: as the chain of m1 (Nb32ILZ) without the ILZ domain: Nb32 VHH and hinge; also called Nb32 monomer; not shown: HA, C-terminal, kept; His6, C-terminal, kept
percent inhibition of patients' IgE binding [1]: 65%
percent inhibition of patients' IgE binding [2]: 48%
koff [3]: 9.9e-05 s⁻¹
koff [4]: 0.0001 s⁻¹
koff [5]: 0.00021 s⁻¹
binding result [6]: no binding
binding result [7]: binds
binding result [8]: binds
